The results in this text go back to article doi:10.1101/172908 (bioRxiv, 2017).

The data set concerns the molecule itself. Nature of the data set: cryo-EM structure.

B1: rat Kir6.2 (natural protein)
chain: MLSRKGIIPEEYVLTRLAEDPTEPRYRTRERRARFVSKKGNCNVAHKNIREQGRFLQDVFTTLVDLKWPHTLLIFTMSFLCSWLLFAMVWWLIAFAHGDLAPGEGTNVPCVTSIHSFSSAFLFSIEVQVTIGFGGRMVTEECPLAILILIVQNIVGLMINAIMLGCIFMKTAQAHRRAETLIFSKHAVITLRHGRLCFMLRVGDLRKSMIISATIHMQVVRKTTSPEGEVVPLHQVDIPMENGVGGNSIFLVAPLIIYHVIDSNSPLYDLAPSDLHHHQDLEIIVILEGVVETTGITTQARTSYLADEILWGQRFVPIVAEEDGRYSVDYSKFGNTVKVPTPLCTARQLDEDRSLLDALTLASSRGPLRKRSVAVAKAKPKFSISPDSLS
The stoichiometry N is a count of units in the complex or per binding partner. Turning to B1, the “stoichiometry N” value worked out at 4.
